Test results from publication PMC2682205, “Cdc7p-Dbf4p Regulates Mitotic Exit by Inhibiting Polo Kinase” (PLoS Genetics, 2009).

Biological target: T1, GST-PoloPBD (Polo amino acids 357–705) (budding yeast (S. cerevisiae), UniProt P32562 357-705)
T1 construct: Cdc5p (Polo), budding yeast; amino acids 357-705 with the polo-box domain; Cloned into pGEX-KG; also called GST-PBD; source: E. coli BL21, purified (glutathione-agarose, dialysis)
T1 sequence (looked up): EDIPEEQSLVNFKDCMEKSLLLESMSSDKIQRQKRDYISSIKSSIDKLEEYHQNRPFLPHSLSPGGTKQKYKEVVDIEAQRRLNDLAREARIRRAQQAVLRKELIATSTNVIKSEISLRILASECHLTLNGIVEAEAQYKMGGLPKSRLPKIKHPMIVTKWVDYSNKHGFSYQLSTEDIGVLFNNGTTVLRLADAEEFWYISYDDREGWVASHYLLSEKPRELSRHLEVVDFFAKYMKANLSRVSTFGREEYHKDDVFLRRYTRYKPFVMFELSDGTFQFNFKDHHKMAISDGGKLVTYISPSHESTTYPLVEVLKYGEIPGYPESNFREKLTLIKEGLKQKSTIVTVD
Test: pull-down; GST or GST-PBD with Sumo or Sumo-Dbf4p on glutathione-agarose, 20 mM Tris-HCl pH 7.0, 300 mM NaCl, 0.5% NP-40, 1 mM EGTA, 1 hour at 4°C; blots with anti-GST-Polo PBD and anti-Smt3p
Settings: both partners purified

- binding result: binds
B1: Sumo-Dbf4p_(67–109) (domain or fragment, budding yeast (S. cerevisiae), UniProt P32325 66-109, looked up)
chain: QQQQHLHEKKRARIERARSIEGAVQVSKGTGLKNVEPRVTPKEL
notes: Dbf4p, budding yeast; Cloned into pSUMO (LifeSensors Inc.); also called Dbf4p PIR; source: E. coli BL21, purified (Ni++ column, imidazole gradient)
